Assay results from PMC2801285.

Molecular target: CaV2.1 (full-length) (UniProt P54282)

Row | inhibition of peak IBa (CaV2.1/α2δ-2/β4) on co-expression in Xenopus oocytes [% inhibition] | reduction of peak IBa (CaV2.1/α2δ-2/β4) on co-expression in Xenopus oocytes [% reduction] | Substance
1 | 37.9 |  | CaV2.1 N terminus (residues 1–100) (from UniProt P54282 1-100) (domain or fragment)
2 |  | 43.8 | CaV2.1 N terminus-CAAX (from UniProt P54282 1-100) (domain or fragment)
